For one data set, the target named is PABPC1 (human, UniProt P11940 1-636). The data set can be described thus: EMSA; unmodified; EMSA Binding Buffer (Beyotime, 5x stock; composition, salt and pH not given), room temperature, 1 h; 8% polyacrylamide 0.5x TBE gel. Particulars: protein: recombinant; tags: Flag-His6 (pET28a-PABPC1-Flag-His6); label: 32P (gamma-32P, stated at 3' end by T4 PNK); single strand. (In general: A gel shift assay detects complexes by their altered migration in electrophoresis.)
Chain of PABPC1 (P11940 whole entry): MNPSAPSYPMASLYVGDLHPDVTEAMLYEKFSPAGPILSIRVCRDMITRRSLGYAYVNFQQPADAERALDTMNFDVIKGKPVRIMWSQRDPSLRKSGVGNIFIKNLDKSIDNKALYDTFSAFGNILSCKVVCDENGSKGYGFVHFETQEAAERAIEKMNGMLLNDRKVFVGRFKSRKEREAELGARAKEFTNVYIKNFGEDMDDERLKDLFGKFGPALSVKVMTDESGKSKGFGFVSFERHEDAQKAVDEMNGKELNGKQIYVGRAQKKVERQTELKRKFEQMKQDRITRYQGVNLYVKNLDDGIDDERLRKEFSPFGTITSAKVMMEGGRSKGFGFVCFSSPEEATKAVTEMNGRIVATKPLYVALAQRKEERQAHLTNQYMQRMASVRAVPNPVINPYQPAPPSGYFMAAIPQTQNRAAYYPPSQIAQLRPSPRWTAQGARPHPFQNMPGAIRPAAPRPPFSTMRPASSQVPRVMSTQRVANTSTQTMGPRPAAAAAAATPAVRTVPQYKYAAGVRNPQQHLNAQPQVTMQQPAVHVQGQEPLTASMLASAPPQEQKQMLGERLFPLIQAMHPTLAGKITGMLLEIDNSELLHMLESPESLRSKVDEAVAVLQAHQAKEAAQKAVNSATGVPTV

The target of the next data set is PABPC4 (human, UniProt Q13310 1-644). The data set is described as above. Particulars: protein: recombinant; tags: Flag-His6 (pET28a-PABPC4-Flag-His6); label: 32P (gamma-32P, stated at 3' end by T4 PNK); single strand.
Chain of PABPC4 (Q13310 whole entry): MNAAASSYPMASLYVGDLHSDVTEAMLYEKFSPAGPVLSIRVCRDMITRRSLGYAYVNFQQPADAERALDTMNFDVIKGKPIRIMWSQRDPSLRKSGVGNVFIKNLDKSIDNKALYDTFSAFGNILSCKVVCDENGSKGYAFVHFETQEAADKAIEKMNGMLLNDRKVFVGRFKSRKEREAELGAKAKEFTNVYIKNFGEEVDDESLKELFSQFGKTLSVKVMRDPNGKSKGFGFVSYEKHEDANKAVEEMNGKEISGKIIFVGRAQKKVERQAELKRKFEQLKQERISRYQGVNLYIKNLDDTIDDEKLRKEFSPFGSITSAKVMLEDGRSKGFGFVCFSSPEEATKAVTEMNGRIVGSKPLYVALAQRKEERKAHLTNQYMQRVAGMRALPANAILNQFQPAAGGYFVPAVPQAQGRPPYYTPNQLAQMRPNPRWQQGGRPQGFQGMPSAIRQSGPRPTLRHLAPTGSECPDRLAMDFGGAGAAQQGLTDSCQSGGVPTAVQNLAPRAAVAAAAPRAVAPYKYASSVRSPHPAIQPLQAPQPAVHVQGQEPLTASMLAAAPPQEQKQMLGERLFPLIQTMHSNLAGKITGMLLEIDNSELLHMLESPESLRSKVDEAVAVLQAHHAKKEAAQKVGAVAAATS
In another data set the target is T1, PABPC1-His6 (human, UniProt P11940 1-636).
T1 construct: PABPC1, human, full length; Written PABPC1-His6; also called His6-tagged PABPC1; full length PABPC1; source: E. coli BL21, purified (Ni beads, eluted with imidazole, dialyzed)
T1 sequence (P11940 whole entry): as the sequence (P11940 whole entry) above
The data set can be described thus: pull-down; GST pull-down: 20 μg purified Gst-MKRN or MKRN3 truncation, 20 μg PABP-His6 or truncation and Glutathione Sepharose 4B, 4°C overnight in 500 μl of 20 mM Tris-Cl, 100 mM NaCl, 5 mM MgCl2, 1 mM EDTA, 1 mM DTT, 0.5% NP-40, 10 μg/ml BSA, pH 7.5; five washes; Coomassie staining and anti-His immunoblot. The settings on record: both partners purified. A general note: Immunoblotting shows a protein as a band on a membrane.

A further data set has as its target T2, PABPC3-His6 (human, UniProt Q9H361 1-631).
T2 construct: PABPC3, human; also called His6-tagged PABPC3; source: E. coli BL21, purified (Ni beads, eluted with imidazole, dialyzed)
The data set is described as above. The settings on record: both partners purified.

T2 sequence (Q9H361 whole entry): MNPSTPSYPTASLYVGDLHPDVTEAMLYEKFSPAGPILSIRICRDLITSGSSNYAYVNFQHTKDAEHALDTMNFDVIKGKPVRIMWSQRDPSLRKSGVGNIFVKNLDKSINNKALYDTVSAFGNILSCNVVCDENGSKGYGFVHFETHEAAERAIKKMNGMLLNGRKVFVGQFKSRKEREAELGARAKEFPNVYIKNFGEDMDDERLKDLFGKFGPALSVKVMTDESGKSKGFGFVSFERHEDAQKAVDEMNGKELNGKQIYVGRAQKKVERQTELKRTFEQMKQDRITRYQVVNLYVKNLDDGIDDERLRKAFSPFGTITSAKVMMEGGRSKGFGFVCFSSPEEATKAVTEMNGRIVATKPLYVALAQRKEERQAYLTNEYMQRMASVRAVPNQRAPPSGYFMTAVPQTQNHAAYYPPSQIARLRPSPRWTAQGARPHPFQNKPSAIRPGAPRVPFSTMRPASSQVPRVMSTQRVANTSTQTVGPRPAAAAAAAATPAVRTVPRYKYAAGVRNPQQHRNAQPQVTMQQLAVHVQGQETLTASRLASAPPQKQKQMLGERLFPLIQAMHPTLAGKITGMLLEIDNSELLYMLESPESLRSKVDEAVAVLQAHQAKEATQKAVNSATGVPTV

As for AAAAAAAAAAAAAAAAAAAAAAAAAAAAAA (ssRNA) [(A)30 RNA], the binding result in the data set with PABPC1 and with PABPC4 was “binds” each time.

B1: Gst-MKRN3 middle region (126-295aa) (domain or fragment, human, UniProt Q13064 126-295, looked up)
chain: MATEGGVSPPGASAGGGPSTAAHIEPPTQEVAEAPPAASSLSLPVIGSAAERGFFEAERDNADRGAAGGAGVESWADAIEFVPGQPYRGRWVASAPEAPLQSSETERKQMAVGSGLRFCYYASRGVCFRGESCMYLHGDICDMCGLQTLHPMDAAQREEHMRACIEAHEK
notes: source: E. coli BL21, purified (glutathione beads, eluted with reduced glutathione, dialyzed)
For B1, the binding result in the data set with PABPC1-His6 was “binds”.

B2: recombinant Gst-tagged MKRN3 (natural protein, human, UniProt Q13064 1-507, looked up)
chain: MEEPAAPSEAHEAAGAQAGAEAAREGVSGPDLPVCEPSGESAAPDSALPHAARGWAPFPVAPVPAHLRRGGLRPAPASGGGAWPSPLPSRSSGIWTKQIICRYYIHGQCKEGENCRYSHDLSGRKMATEGGVSPPGASAGGGPSTAAHIEPPTQEVAEAPPAASSLSLPVIGSAAERGFFEAERDNADRGAAGGAGVESWADAIEFVPGQPYRGRWVASAPEAPLQSSETERKQMAVGSGLRFCYYASRGVCFRGESCMYLHGDICDMCGLQTLHPMDAAQREEHMRACIEAHEKDMELSFAVQRGMDKVCGICMEVVYEKANPNDRRFGILSNCNHSFCIRCIRRWRSARQFENRIVKSCPQCRVTSELVIPSEFWVEEEEEKQKLIQQYKEAMSNKACRYFAEGRGNCPFGDTCFYKHEYPEGWGDEPPGPGGGSFSAYWHQLVEPVRMGEGNMLYKSIKKELVVLRLASLLFKRFLSLRDELPFSEDQWDLLHYELEEYFNLIL
notes: MKRN3, human, full length; Written Gst-MKRN3; also called Gst-MKRN3; full length MKRN3; source: E. coli BL21, purified (glutathione beads, eluted with reduced glutathione, dialyzed)
For the molecule B2, the binding result in the data set with PABPC1-His6 and with PABPC3-His6 was “binds” throughout.

Values taken from article PMC8053111, “MKRN3-mediated ubiquitination of Poly(A)-binding proteins modulates the stability and translation of GNRH1 mRNA in mammalian puberty” (Nucleic Acids Research, 2021).
